B1: APB-Junction (dsDNA)
DNA 1: TGAGGTTCAGCAAGGTGATGCTTTAGATTTTTC
DNA 2: AGGCGGTCAGTATTAACACCGCCTGCAACAGTGCCACGCTGAGAGCCAGCAGCAAATGAAAAATCTAAAGCATCACCTTGCTGAACCTCA
modifications: APB on phosphorothioate dCMP at primer nt 33
B2: dd-Junction (dsDNA)
DNA 1: TGAGGTTCAGCAAGGTGATGCTTTAGATTTTTCA
DNA 2: B1 DNA 2
modifications: 3' ddAMP (primer nt 34); APB on S-dCMP at primer nt 33

Key:
[1] = biological target: CTF18-RFC;p261Nexo- (human;human, UniProt Q8WVB6;Q9BVC3;P0CG13;P35250;P40938;P35249;P40937;Q07864 …, |D275A); test: photo-crosslinking
[2] = biological target: CTF18-RFC (human, UniProt Q8WVB6;Q9BVC3;P0CG13;P35250;P40938;P35249;P40937 …); test: EMSA
[3] = biological target: CTF18-RFC;PCNA (human;human, UniProt Q8WVB6;Q9BVC3;P0CG13;P35250;P40938;P35249;P40937;P12004 …, |); test: EMSA

| Binder | binding signal [1] | binding result [2] | binding result [3] |
| --- | --- | --- | --- |
| B1 | ~3 fold p261Nexo- crosslink vs alone (CTF18 5-fold) |  |  |
| B2 |  | no binding | no binding |

From article PMC5416766
